Test [1] addresses T1, human CD38 on tumor cell lines NCI-H929 (CD38+/CD28+) and OCI-LY19 (CD38+/CD28-) (human, UniProt P28907 1-300). Description: cell-based or functional assay.
The target in another test is T2, Human CD38-His (human, UniProt P28907 43-300, limits assumed).
T2 construct: Bought antigen; also called human CD38 (SPR antigen); not shown: His tag
Description: SPR (BIACORE 3000), capture format, 1:1 Langmuir model.

The target in test [2] is T1, human CD38 on tumor cell lines NCI-H929 …. Nature of the test: cell-based or functional assay. This is another data set of the same source.
In the next test the target is T3, cynomolgus monkey CD38 (cynomolgus monkey, UniProt Q5VAN0 44-301, limits assumed).
T3 construct: also called Cyno CD38; cynoCD38
Description: ELISA, antigen-coated plate.

The target of a further test is T4, Human CD28 (human, UniProt P10747 19-152, limits assumed).
T4 construct: also called hCD28
Description: ELISA, antigen-coated plate.

For the next test, the target named is T5, Human CD3 (human).
T5 chain: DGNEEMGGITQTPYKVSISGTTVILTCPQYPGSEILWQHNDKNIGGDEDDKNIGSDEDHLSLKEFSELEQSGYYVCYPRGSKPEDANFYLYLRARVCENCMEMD
Description: ELISA, antigen-coated plate.

In another test the target is T6, human CD38 (human, UniProt P28907 43-300, limits assumed).
T6 construct: also called hCD38; huCD38
Nature of the test: ELISA, antigen-coated plate.

Description for Human CD28: (§1) Binding affinities to each target antigen by the CD38/CD28×CD3 T cell engagers were measured by ELISA. Briefly, each antigen was used to coat the 96-well Immuno Plate (Thermo Fisher Scientific) overnight at 4° C. using 200 ng/well in PBS (pH7.4) of each antigen. The coated plate was blocked using 5% skim milk+2% BSA in PBS for one hour at RT, followed by washing with PBS+0.25% Tween 20 three times (Aqua Max 400, Molecular Devices). Serial dilution of antibodies (trispecific and control Abs) were prepared and added onto the ELISA plates (100 μl/well in duplicate), incubated at room temperature (RT) for one hour, followed by washing 5 times with PBS+0.25% Tween 20. […] The reaction was terminated by adding 50 μl 1M H₂SO₄, and OD450 was measured using SpectraMax M5 (Molecular Devices) and analyzed using SoftMax Pro6.3 software (Molecular Devices). The final data was transferred to GraphPad Prism software (GraphPad Software, CA, USA), and plotted. EC50 was calculated using the same software.
(§2) The binding affinities of selected CD38/CD28sup×CD3mid_ENLQ DKTHT IgG4 FALA trispecific antibodies with alternative anti-CD38 binding domains for human CD3, human CD28, human CD38 and cynomolgus monkey CD38 were then determined by ELISA as described above.
Description for Human CD38-His: Human CD38-His antigens were used (Cambridge Biologics, Cambridge, Mass.) for full kinetic analysis. Kinetic characterization of purified antibodies was performed using SPR technology on a BIACORE 3000 (GE Healthcare). A capture assay using human IgG1 specific antibody capture and orientation of the investigated antibodies was used. For capture of Fc containing protein constructs the human antibody capture kit (GE Healthcare) was used. For capture of His tagged antigen, anti-His antibody capture kit (GE Healthcare) was used. The capture antibody was immobilized via primary amine groups (11000 RU) on a research grade CM5 chip (GE Life Sciences) using standard procedures. […] Binding kinetics were measured against the trispecific antibodies. Assay buffer HBS EP (10 mM HEPES, pH 7.4, 150 mM NaCl, 3 mM EDTA, and 0.005% Surfactant P20) was used at a flow rate of 30 μl/min. Chip surfaces were regenerated with the regeneration solution of the respective capture kit. Kinetic parameters were analyzed and calculated in the BIA evaluation program package v4.1 using a flow cell without captured antibody as reference and the 1:1 Langmuir binding model with mass transfer.
Description for cynomolgus monkey CD38: as §1, §2

B1: CD38hyb6284/CD28sup x CD3mid_ENLQ DKTHT IgG4 FALA (other)
light 1: DIVMTQTPLSLSVTPGQPASISCKSSQSLVHENLQTYLSWYLQKPGQSPQSLIYKVSNRFSGVPDRFSGSGSGTDFTLKISRVEAEDVGVYYCGQGTQYPFTFGSGTKVEIKDKTHTDIQMTQSPSSLSASVGDRVTITCQASQNIYVWLNWYQQKPGKAPKLLIYKASNLHTGVPSRFSGSGSGTDFTLTISSLQPEDIATYYCQQGQTYPYTFGQGTKLEIKDKTHTRTVAAPSVFIFPPSDEQLKSGTASVVCLLNNFYPREAKVQWKVDNALQSGNSQESVTEQDSKDSTYSLSSTLTLSKADYEKHKVYACEVTHQGLSSPVTKSFNRGEC
heavy 1: QVQLVQSGAEVVKPGASVKVSCKASGYTFTSYYIHWVRQAPGQGLEWIGSIYPGNVNTNYAQKFQGRATLTVDTSISTAYMELSRLRSDDTAVYYCTRSHYGLDWNFDVWGKGTTVTVSSDKTHTQVQLVESGGGVVQPGRSLRLSCAASGFTFTKAWMHWVRQAPGKQLEWVAQIKDKSNSYATYYADSVKGRFTISRDDSKNTLYLQMNSLRAEDTAVYYCRGVYYALSPFDYWGQGTLVTVSSDKTHTASTKGPSVFPLAPCSRSTSESTAALGCLVKDYFPEPVTVSWNSGALTSGVHTFPAVLQSSGLYSLSSVVTVPSSSLGTKTYTCNVDHKPSNTKVDKRVESKYGPPCPPCPAPEAAGGPSVFLFPPKPKDTLMISRTPEVTCVVVDVSQEDPEVQFNWYVDGVEVHNAKTKPREEQFNSTYRVVSVLTVLHQDWLNGKEYKCKVSNKGLPSSIEKTISKAKGQPREPQVCTLPPSQEEMTKNQVSLSCAVKGFYPSDIAVEWESNGQPENNYKTTPPVLDSDGSFFLVSKLTVDKSRWQEGNVFSCSVMHEALHNHYTQKSLSLSLG
heavy 2: QVQLLQSGAELVRPGVSVKISCTGSGYSFTNYAVHWVKQSHVKSLEWIGVISPYYGDTTYNQKFTGKATMTVDKSSSTAYMELARLTSEDSAIYFCARRFEGFYYSMDYWGQGTSVTVSSASTKGPSVFPLAPCSRSTSESTAALGCLVKDYFPEPVTVSWNSGALTSGVHTFPAVLQSSGLYSLSSVVTVPSSSLGTKTYTCNVDHKPSNTKVDKRVESKYGPPCPPCPAPEAAGGPSVFLFPPKPKDTLMISRTPEVTCVVVDVSQEDPEVQFNWYVDGVEVHNAKTKPREEQFNSTYRVVSVLTVLHQDWLNGKEYKCKVSNKGLPSSIEKTISKAKGQPREPQVYTLPPCQEEMTKNQVSLWCLVKGFYPSDIAVEWESNGQPENNYKTTPPVLDSDGSFFLYSKLTVDKSRWQEGNVFSCSVMHEALHNHYTQKSLSLSLG
light 2: DVVMIQTPLSLPVSLGDQASISCRPSQSLVHSNGNTYLNWYLQRPGQSPKLLIYKVSKRFSGVPDRFSGSGSGTDFTLKISRVEAEDLGVYLCSQSTHVPLTFGSGTQLEIKRTVAAPSVFIFPPSDEQLKSGTASVVCLLNNFYPREAKVQWKVDNALQSGNSQESVTEQDSKDSTYSLSSTLTLSKADYEKHKVYACEVTHQGLSSPVTKSFNRGEC
notes: Trispecific antibody; also called BP # 7
With B1, in test [1], the “EC50 of in vitro killing of OCI-LY19 (CD38+/CD28-) cells, With Dara” value was determined as 0.081 nM and the “EC50 of in vitro killing of OCI-LY19 (CD38+/CD28-) cells, With human IgG1” value amounted to 0.0421 nM. Further, in the test with Human CD38-His, the affinity, expressed as Kd, was 0.652 nM; the koff was determined as 0.000512 s⁻¹; the kon is 785000 M⁻¹ s⁻¹. In test [2], the “EC50 of in vitro killing of NCI-H929 (CD38+/CD28+) cells, With Dara” value was found to be 0.0336 nM and the “EC50 of in vitro killing of NCI-H929 (CD38+/CD28+) cells, With human IgG1” value is 0.00437 nM. The response with cynomolgus monkey CD38 was half-maximal at 0.29 nM (EC50). The same molecule came in with an EC50 with Human CD28 of 0.711 nM. Moreover, the half-maximal effective concentration (EC50) with Human CD3 was found to be 8.22 nM. In the test with human CD38, this molecule had an EC50 of 0.253 nM.

B2: CD38hhy1195/CD28sup x CD3mid_ENLQ DKTHT IgG4 FALA (other)
light 1: DIVMTQTPLSLSVTPGQPASISCKSSQSLVHENLQTYLSWYLQKPGQSPQSLIYKVSNRFSGVPDRFSGSGSGTDFTLKISRVEAEDVGVYYCGQGTQYPFTFGSGTKVEIKDKTHTDIQMTQSPSSLSASVGDRVTITCQASQNIYVWLNWYQQKPGKAPKLLIYKASNLHTGVPSRFSGSGSGTDFTLTISSLQPEDIATYYCQQGQTYPYTFGQGTKLEIKDKTHTRTVAAPSVFIFPPSDEQLKSGTASVVCLLNNFYPREAKVQWKVDNALQSGNSQESVTEQDSKDSTYSLSSTLTLSKADYEKHKVYACEVTHQGLSSPVTKSFNRGEC
heavy 1: QVQLVQSGAEVVKPGASVKVSCKASGYTFTSYYIHWVRQAPGQGLEWIGSIYPGNVNTNYAQKFQGRATLTVDTSISTAYMELSRLRSDDTAVYYCTRSHYGLDWNFDVWGKGTTVTVSSDKTHTQVQLVESGGGVVQPGRSLRLSCAASGFTFTKAWMHWVRQAPGKQLEWVAQIKDKSNSYATYYADSVKGRFTISRDDSKNTLYLQMNSLRAEDTAVYYCRGVYYALSPFDYWGQGTLVTVSSDKTHTASTKGPSVFPLAPCSRSTSESTAALGCLVKDYFPEPVTVSWNSGALTSGVHTFPAVLQSSGLYSLSSVVTVPSSSLGTKTYTCNVDHKPSNTKVDKRVESKYGPPCPPCPAPEAAGGPSVFLFPPKPKDTLMISRTPEVTCVVVDVSQEDPEVQFNWYVDGVEVHNAKTKPREEQFNSTYRVVSVLTVLHQDWLNGKEYKCKVSNKGLPSSIEKTISKAKGQPREPQVCTLPPSQEEMTKNQVSLSCAVKGFYPSDIAVEWESNGQPENNYKTTPPVLDSDGSFFLVSKLTVDKSRWQEGNVFSCSVMHEALHNHYTQKSLSLSLG
heavy 2: QVQLVESGGGVVQPGRSLRLSCAASGFTFSSYGMYWVRQAPGKGLEWVAVIWYDGSNKYYADSVKGRFTISRDNSKNTLYLQMNSLRAEDTAVYHCARDPGLRYFDGGMDVWGQGTTVTVSSASTKGPSVFPLAPCSRSTSESTAALGCLVKDYFPEPVTVSWNSGALTSGVHTFPAVLQSSGLYSLSSVVTVPSSSLGTKTYTCNVDHKPSNTKVDKRVESKYGPPCPPCPAPEAAGGPSVFLFPPKPKDTLMISRTPEVTCVVVDVSQEDPEVQFNWYVDGVEVHNAKTKPREEQFNSTYRVVSVLTVLHQDWLNGKEYKCKVSNKGLPSSIEKTISKAKGQPREPQVYTLPPCQEEMTKNQVSLWCLVKGFYPSDIAVEWESNGQPENNYKTTPPVLDSDGSFFLYSKLTVDKSRWQEGNVFSCSVMHEALHNHYTQKSLSLSLG
light 2: DIQLTQSPSFLSASVGDRVTITCRASQGISSYLAWYQQKPGKAPKLLIFAASTLHSGVPSRFSGSGSGTEFTLTISSLQPEDFATYYCQQLNSFPYTFGQGTKLEIKRTVAAPSVFIFPPSDEQLKSGTASVVCLLNNFYPREAKVQWKVDNALQSGNSQESVTEQDSKDSTYSLSSTLTLSKADYEKHKVYACEVTHQGLSSPVTKSFNRGEC
notes: Trispecific antibody; also called BP # 8
With B2, in test [1], the “EC50 of in vitro killing of OCI-LY19 (CD38+/CD28-) cells, With Dara” value was 0.715 nM and the “EC50 of in vitro killing of OCI-LY19 (CD38+/CD28-) cells, With human IgG1” value came to 0.296 nM. In the test with Human CD38-His, this molecule yielded a Kd of 14.2 nM, a koff of 0.018 s⁻¹ and a kon of 1.27e+06 M⁻¹ s⁻¹. For the same molecule, in test [2], the “EC50 of in vitro killing of NCI-H929 (CD38+/CD28+) cells, With Dara” value worked out at 0.0893 nM and the “EC50 of in vitro killing of NCI-H929 (CD38+/CD28+) cells, With human IgG1” value is 0.017 nM. In the test with cynomolgus monkey CD38, this molecule had an EC50 of 37.7 nM. This molecule returned an EC50 with Human CD28 of 0.697 nM. The molecule further had an EC50 in the test with Human CD3 of 7.63 nM. Further, the midpoint of the response with human CD38, the EC50, lay at 103 nM.

The values are drawn from patent US20200399369A1 (Sanofi, published 2020).
